Measurements: patent publication US20110008406A1

Tests used:
[1] = target: T1, silk fibroin, sericin-depleted, from degummed Bombyx mori silk (dissolved in 9.3 M LiBr, dialysed, then gelled or precipitated) (Bombyx mori), P05790; test: HPLC and dry mass of silk precipitates, over all formulations
[2] = target: T1, silk fibroin, sericin-depleted, from …; test: HPLC of 23RGD extracted from the final rinsed 23RGD-enhanced silk gel
[3] = target: T1, silk fibroin, sericin-depleted, from …; test: HPLC of 23RGD extracted from lyophilized silk precipitate, formulation RHI
[4] = target: T1, silk fibroin, sericin-depleted, from …; test: HPLC of 23RGD extracted from lyophilized silk precipitate, formulation AVHI
[5] = target: T1, silk fibroin, sericin-depleted, from …; test: HPLC of 23RGD extracted from lyophilized silk precipitate, formulation AVLO
[6] = target: T1, silk fibroin, sericin-depleted, from …; test: HPLC of 23RGD extracted from lyophilized silk precipitate, formulation BASE
[7] = target: T1, silk fibroin, sericin-depleted, from …; test: HPLC of 23RGD extracted from lyophilized silk precipitate, formulation SCLO
[8] = target: T1, silk fibroin, sericin-depleted, from …; test: HPLC of 23RGD extracted from lyophilized silk precipitate, formulation SCVLO
[9] = target: T1, silk fibroin, sericin-depleted, from …; test: HPLC of 23RGD extracted from silk precipitates; plateau over the formulations
[10] = target: T1, silk fibroin, sericin-depleted, from …; test: HPLC of 23RGD extracted from lyophilized silk precipitate, formulation 0.6S 3R 10:1
[11] = target: T1, silk fibroin, sericin-depleted, from …; test: HPLC of 23RGD extracted from lyophilized silk precipitate, formulation printed as RLO
[12] = target: T1, silk fibroin, sericin-depleted, from …; test: HPLC of 23RGD extracted from lyophilized silk precipitate, formulation printed as RMED
[13] = target: T1, silk fibroin, sericin-depleted, from …; test: HPLC of 23RGD extracted from silk precipitate, formulation AVLO, against the calculated molar ratio
[14] = target: T1, silk fibroin, sericin-depleted, from …; test: HPLC of 23RGD extracted from silk precipitate, formulation BASE, against the calculated molar ratio
[15] = target: T1, silk fibroin, sericin-depleted, from …; test: HPLC of 23RGD extracted from silk precipitate, formulation ECLO, against the calculated molar ratio
[16] = target: T1, silk fibroin, sericin-depleted, from …; test: HPLC of 23RGD extracted from silk precipitate, formulation SCLO, against the calculated molar ratio
[17] = target: T1, silk fibroin, sericin-depleted, from …; test: HPLC of 23RGD extracted from silk precipitate, formulation printed as RMED, against the calculated molar ratio

For GRGDIPASSKGGGGSRLLLLLLR (modifications not checked) [23RGD peptide (amphiphilic peptide: RGD motif, spacer region, leucine tail; 23 amino acids)], the percent of 23RGD precipitated with silk [1] was 5 to 30%, the 23RGD:silk molar ratio (bound) (mol 23RGD per mol silk) [2] was 3.35 and the 23RGD:silk ratio (bound) (mol 23RGD per mol silk) [3] was 10.7. It also gave a 23RGD:silk ratio (bound) (mol 23RGD per mol silk) [4] of 10.5, a 23RGD:silk ratio (bound) (mol 23RGD per mol silk) [5] of 5.2 and a 23RGD:silk ratio (bound) (mol 23RGD per mol silk) [6] of 8.7. The 23RGD:silk ratio (bound) (mol 23RGD per mol silk) [7] was 9.9, the 23RGD:silk ratio (bound) (mol 23RGD per mol silk) [8] was 11 and the apparent saturation, RGD molecules per molecule of silk (mol 23RGD per mol silk) [9] was 10. It also gave a 23RGD:silk ratio (bound) (mol 23RGD per mol silk) [10] of 10, a 23RGD:silk ratio (bound) (mol 23RGD per mol silk) [11] of 1.1 and a 23RGD:silk ratio (bound) (mol 23RGD per mol silk) [12] of 6.95. The bound RGD, fold of the calculated (expected) amount [13] was 2 fold, the bound RGD, fold of the calculated (expected) amount [14] was 2 fold and the bound RGD, fold of the calculated (expected) amount [15] was 1.5 fold. The bound RGD, fold of the calculated (expected) amount [16] was 2 fold and the bound RGD, fold of the calculated (expected) amount [17] was 2 fold.
